Laboratory results: patent US20230265151A1, “GIP/GLP1 CO-AGONIST COMPOUNDS” (priority 2020, published 2023)
Substitutions are numbered along the chain they refer to. *1 amine or outer side, *2 acyl side, *3 side chain or, on linkers, in order; H or OH if unused. Where no end group is shown, it is not given here. Side-chain parts run from the residue outwards. [ ]: non-standard residue; d: D form. The star is where a group is joined. Decanoyl(10-(4-HOOC-PhO)) = O=C(O)c1ccc(OCCCCCCCCCC(=O)*)cc1; αMePhe(2-F) = C[C@](N)(Cc1ccccc1F)C(=O)O; γGlu = O=C(O)[C@H](CCC(=O)[*:2])N[*:1]; C14 diacid = O=C(O)CCCCCCCCCCCCC(=O)*; αMeY = C[C@](N)(Cc1ccc(O)cc1)C(=O)O; αMeL = CC(C)C[C@](C)(N)C(=O)O; Orn = NCCC[C@H](N)C(=O)O; AEEA = NCCOCCOCC(=O)O; Aib = CC(C)(N)C(=O)O

T1: human GIP receptor (human) (UniProt P48546)
T1 sequence (looked up): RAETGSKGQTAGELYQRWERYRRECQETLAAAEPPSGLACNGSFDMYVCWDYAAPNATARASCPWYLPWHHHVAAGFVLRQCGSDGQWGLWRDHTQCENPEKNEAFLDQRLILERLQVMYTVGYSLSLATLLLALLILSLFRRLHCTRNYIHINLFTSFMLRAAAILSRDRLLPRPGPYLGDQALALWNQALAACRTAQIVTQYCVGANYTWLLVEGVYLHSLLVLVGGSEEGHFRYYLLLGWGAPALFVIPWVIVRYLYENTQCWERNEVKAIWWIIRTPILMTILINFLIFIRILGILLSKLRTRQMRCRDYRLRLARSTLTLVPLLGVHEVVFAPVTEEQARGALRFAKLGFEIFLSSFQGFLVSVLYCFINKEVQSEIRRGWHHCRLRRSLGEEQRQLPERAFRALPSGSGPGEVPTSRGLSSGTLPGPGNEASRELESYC

T2: human GIP receptor (human, UniProt P48546 22-466)
T2 sequence (looked up): T1 sequence (looked up)

B1: Example 380 (peptide)
peptide: Y[Aib]EGT[αMePhe(2-F)]TSDV[Aib]I[αMeL]LD[Orn]K([AEEA-AEEA-γGlu-Decanoyl(10-(4-HOOC-PhO))])AQ[Aib]EFI[dE][αMeY]LIEGGPSSGAPPPSK([AEEA-AEEA-γGlu-Decanoyl(10-(4-HOOC-PhO))])-NH2
B2: Example 389 (peptide)
peptide: Y[Aib]EGT[αMePhe(2-F)]TSDV[Aib]I[αMeL]LD[Orn]K([AEEA-AEEA-C14 diacid])AQ[Aib]EFI[dE][αMeY]LIK([AEEA-AEEA-C14 diacid])GGPSSGAPPPS-NH2
B3: Example 382 (peptide)
peptide: Y[Aib]EGT[αMePhe(2-F)]TSDV[Aib]I[αMeL]LD[Orn]IAQ[Aib]K([AEEA-γGlu-Decanoyl(10-(4-HOOC-PhO))])FI[dE][αMeY]LIK([AEEA-γGlu-Decanoyl(10-(4-HOOC-PhO))])GGPSSGAPPPS-NH2
B4: Example 397 (peptide)
peptide: Y[Aib]EGT[αMePhe(2-F)]TSDV[Aib]I[αMeL]LD[Orn]K([AEEA-AEEA-Decanoyl(10-(4-HOOC-PhO))])AQ[Aib]EFI[dE][αMeY]LIK([AEEA-AEEA-Decanoyl(10-(4-HOOC-PhO))])GGPSSGAPPPS-NH2
B5: Example 384 (peptide)
peptide: YXEGTXTSDXXIXLDXKAQXKFIXXLIEGGPSSGAPPPS
modifications: Y-Aib-EGT-αMeF(2F)-TSD-4Pal-Aib-I-αMeL-LD-Orn-K((2-[2-(2-Amino-ethoxy)-ethoxy]-acetyl)2-CO-(CH2)12-CO2H)AQ-Aib-K((2-[2-(2-Amino-ethoxy)-ethoxy]-acetyl)2-CO-(CH2)12-CO2H)FI-(D-Glu)-αMeY-LIEGGPSSGAPPPS-NH2
B6: Example 394 (peptide)
peptide: B5 peptide with X10V
modifications: Y-Aib-EGT-αMeF(2F)-TSDV-Aib-I-αMeL-LD-Orn-K((2-[2-(2-Amino-ethoxy)-ethoxy]-acetyl)2-(10-(4-carboxyphenoxy)decanoyl))AQ-Aib-K((2-[2-(2-Amino-ethoxy)-ethoxy]-acetyl)2-(10-(4-carboxyphenoxy)decanoyl))FI-(D-Glu)-αMeY-LIEGGPSSGAPPPS-NH2
B7: Example 385 (peptide)
peptide: B5 peptide with X10Y
modifications: Y-Aib-EGT-αMeF(2F)-TSDY-Aib-I-αMeL-LD-Orn-K((2-[2-(2-Amino-ethoxy)-ethoxy]-acetyl)2-CO-(CH2)12-CO2H)AQ-Aib-K((2-[2-(2-Amino-ethoxy)-ethoxy]-acetyl)2-CO-(CH2)12-CO2H)FI-(D-Glu)-αMeY-LIEGGPSSGAPPPS-NH2
B8: Example 396 (peptide)
peptide: B5 peptide with X10Y, K21E, E28K
modifications: Y-Aib-EGT-αMeF(2F)-TSDY-Aib-I-αMeL-LD-Orn-K((2-[2-(2-Amino-ethoxy)-ethoxy]-acetyl)2-(10-(4-carboxyphenoxy)decanoyl))AQ-Aib-EFI-(D-Glu)-αMeY-LIK((2-[2-(2-Amino-ethoxy)-ethoxy]-acetyl)2-(10-(4-carboxyphenoxy)decanoyl))GGPSSGAPPPS-NH2
B9: Example 398 (peptide)
peptide: B5 peptide with X10V
modifications: Y-Aib-EGT-αMeF(2F)-TSDV-Aib-I-αMeL-LD-Orn-K((2-[2-(2-Amino-ethoxy)-ethoxy]-acetyl)-(γ-Glu)-CO-(CH2)12-CO2H)AQ-Aib-K((2-[2-(2-Amino-ethoxy)-ethoxy]-acetyl)-(γ-Glu)-CO-(CH2)12-CO2H)FI-(D-Glu)-αMeY-LIEGGPSSGAPPPS-NH2
B10: Example 388 (peptide)
peptide: B5 peptide with X10Y, K21E, E28K
modifications: Y-Aib-EGT-αMeF(2F)-TSDY-Aib-I-αMeL-LD-Orn-K((2-[2-(2-Amino-ethoxy)-ethoxy]-acetyl)2-CO-(CH2)12-CO2H)AQ-Aib-EFI-(D-Glu)-αMeY-LIK((2-[2-(2-Amino-ethoxy)-ethoxy]-acetyl)2-CO-(CH2)12-CO2H)GGPSSGAPPPS-NH2
B11: Example 393 (peptide)
peptide: B5 peptide with X10Y
modifications: Y-Aib-EGT-αMeF(2F)-TSDY-Aib-I-αMeL-LD-Orn-K((2-[2-(2-Amino-ethoxy)-ethoxy]-acetyl)2-(10-(4-carboxyphenoxy)decanoyl))AQ-Aib-K((2-[2-(2-Amino-ethoxy)-ethoxy]-acetyl)2-(10-(4-carboxyphenoxy)decanoyl))FI-(D-Glu)-αMeY-LIEGGPSSGAPPPS-NH2
B12: Example 386 (peptide)
peptide: B5 peptide with X10V
modifications: Y-Aib-EGT-αMeF(2F)-TSDV-Aib-I-αMeL-LD-Orn-K((2-[2-(2-Amino-ethoxy)-ethoxy]-acetyl)2-CO-(CH2)12-CO2H)AQ-Aib-K((2-[2-(2-Amino-ethoxy)-ethoxy]-acetyl)2-CO-(CH2)12-CO2H)FI-(D-Glu)-αMeY-LIEGGPSSGAPPPS-NH2
B13: Example 383 (peptide)
peptide: Y[Aib]EGT[αMePhe(2-F)]TSDV[Aib]I[αMeL]LD[Orn]IAQ[Aib]K([AEEA-AEEA-γGlu-Decanoyl(10-(4-HOOC-PhO))])FI[dE][αMeY]LIEGGPSSGAPPPSK([AEEA-AEEA-γGlu-Decanoyl(10-(4-HOOC-PhO))])-NH2

What was measured:
Experiment in all cases: cell-based or functional assay
hGLP-1R = hGLP-1R (Homo sapiens, UniProt P43220)
[1] = target: T1, human GIP receptor (human)
[2] = target: human glucagon receptor (human) (UniProt P47871)
human GIP receptor = target: T2, human GIP receptor
human GLP-1 receptor = human GLP-1 receptor (human, UniProt P43220 24-463)
human glucagon receptor = human glucagon receptor (human, UniProt P47871 26-477)
Sequence of human glucagon receptor (P47871 26-477): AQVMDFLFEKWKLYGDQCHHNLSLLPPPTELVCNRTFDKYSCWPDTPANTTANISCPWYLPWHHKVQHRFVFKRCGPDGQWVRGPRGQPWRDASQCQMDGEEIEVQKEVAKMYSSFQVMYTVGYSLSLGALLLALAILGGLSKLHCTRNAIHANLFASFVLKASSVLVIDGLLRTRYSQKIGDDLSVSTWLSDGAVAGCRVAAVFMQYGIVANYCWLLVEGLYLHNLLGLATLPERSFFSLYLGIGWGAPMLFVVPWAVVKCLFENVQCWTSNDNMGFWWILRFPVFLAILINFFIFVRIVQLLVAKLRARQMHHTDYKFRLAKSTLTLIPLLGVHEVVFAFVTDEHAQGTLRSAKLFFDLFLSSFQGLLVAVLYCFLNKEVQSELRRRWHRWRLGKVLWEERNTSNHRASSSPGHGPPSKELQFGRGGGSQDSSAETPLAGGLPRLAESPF

Binder	cAMP EC50 (hGLP-1R) [nM]	cAMP Emax (hGLP-1R) [%]	cAMP EC50 [1] [nM]	cAMP Emax [1] [%]	cAMP EC50 [2] [nM]	cAMP EC50 (1.0% HSA) (human GIP receptor) [nM]	cAMP Emax (1.0% HSA) (human GIP receptor) [%]	cAMP EC50 (1.0% HSA) (human GLP-1 receptor) [nM]	cAMP Emax (1.0% HSA) (human GLP-1 receptor) [%]	cAMP EC50 (1.0% HSA) (human glucagon receptor) [nM]
B1	0.176	96.2	0.0209	100	> 9950	9.23	93.5	28	94.5	> 9950
B2	0.19	92.4	0.0178	94.6	> 9950	1.5	82	9.58	–	> 9950
B3	0.619	101	0.0302	97.6	> 9950	18.7	87.2	204	–	> 9950
B4	0.166	95.8	0.0293	94.6	> 9950	1.92	84.5	7.17	–	> 9950
B5	0.308	98.2	0.0124	94.5	> 9950	0.457	–	5.32	–	> 9950
B6	0.223	101	0.0179	97.7	> 9950	1.38	84.6	5.83	–	> 9950
B7	0.189	100	0.0154	95.2	> 9950	0.558	83.5	10.6	112	> 9950
B8	0.291	107	0.0113	96.2	> 9950	0.595	67.1	6.49	94.4	> 9950
B9	0.215	101	0.0166	97.4	> 9950	5.4	91.9	41.3	–	> 9950
B10	0.292	95.4	0.0103	98.3	> 9950	0.463	–	6.31	–	> 9950
B11	0.372	96.8	0.0115	94.3	> 9950	0.547	66.7	9.18	–	> 9950
B12	0.194	98.9	0.0174	95.7	> 9950	2.08	81.3	17.7	–	> 9950
B13	0.306	105	0.0147	100	> 9950	10.7	82.8	92.2	102	> 9950
